Assay results as given in patent WO2016171242A1 (dated 2016).

What was measured:
[1] = target: T1, endogenous human EPHA2 (on MDA-MB-231 cells or 293F cells) (human, UniProt P29317 24-976); test: immunohistochemistry on formalin-fixed, paraffin-embedded MDA-MB-231 cells
T1 construct: Untagged protein made by the cell lines themselves; also called endogenous EPHA2; EPHA2 endogenously expressed MDA-MB-231 cells

[2] = target: T2, human PTPRS isoform 4 without signal sequence, FLAG-tagged, expressed from pFLAG-PTPRS-4 (human, UniProt Q13332 30-1948); test: flow cytometry on transfected 293F cells
T2 construct: not shown: FLAG tag supplied by the vector pFLAG-GW
T2 sequence: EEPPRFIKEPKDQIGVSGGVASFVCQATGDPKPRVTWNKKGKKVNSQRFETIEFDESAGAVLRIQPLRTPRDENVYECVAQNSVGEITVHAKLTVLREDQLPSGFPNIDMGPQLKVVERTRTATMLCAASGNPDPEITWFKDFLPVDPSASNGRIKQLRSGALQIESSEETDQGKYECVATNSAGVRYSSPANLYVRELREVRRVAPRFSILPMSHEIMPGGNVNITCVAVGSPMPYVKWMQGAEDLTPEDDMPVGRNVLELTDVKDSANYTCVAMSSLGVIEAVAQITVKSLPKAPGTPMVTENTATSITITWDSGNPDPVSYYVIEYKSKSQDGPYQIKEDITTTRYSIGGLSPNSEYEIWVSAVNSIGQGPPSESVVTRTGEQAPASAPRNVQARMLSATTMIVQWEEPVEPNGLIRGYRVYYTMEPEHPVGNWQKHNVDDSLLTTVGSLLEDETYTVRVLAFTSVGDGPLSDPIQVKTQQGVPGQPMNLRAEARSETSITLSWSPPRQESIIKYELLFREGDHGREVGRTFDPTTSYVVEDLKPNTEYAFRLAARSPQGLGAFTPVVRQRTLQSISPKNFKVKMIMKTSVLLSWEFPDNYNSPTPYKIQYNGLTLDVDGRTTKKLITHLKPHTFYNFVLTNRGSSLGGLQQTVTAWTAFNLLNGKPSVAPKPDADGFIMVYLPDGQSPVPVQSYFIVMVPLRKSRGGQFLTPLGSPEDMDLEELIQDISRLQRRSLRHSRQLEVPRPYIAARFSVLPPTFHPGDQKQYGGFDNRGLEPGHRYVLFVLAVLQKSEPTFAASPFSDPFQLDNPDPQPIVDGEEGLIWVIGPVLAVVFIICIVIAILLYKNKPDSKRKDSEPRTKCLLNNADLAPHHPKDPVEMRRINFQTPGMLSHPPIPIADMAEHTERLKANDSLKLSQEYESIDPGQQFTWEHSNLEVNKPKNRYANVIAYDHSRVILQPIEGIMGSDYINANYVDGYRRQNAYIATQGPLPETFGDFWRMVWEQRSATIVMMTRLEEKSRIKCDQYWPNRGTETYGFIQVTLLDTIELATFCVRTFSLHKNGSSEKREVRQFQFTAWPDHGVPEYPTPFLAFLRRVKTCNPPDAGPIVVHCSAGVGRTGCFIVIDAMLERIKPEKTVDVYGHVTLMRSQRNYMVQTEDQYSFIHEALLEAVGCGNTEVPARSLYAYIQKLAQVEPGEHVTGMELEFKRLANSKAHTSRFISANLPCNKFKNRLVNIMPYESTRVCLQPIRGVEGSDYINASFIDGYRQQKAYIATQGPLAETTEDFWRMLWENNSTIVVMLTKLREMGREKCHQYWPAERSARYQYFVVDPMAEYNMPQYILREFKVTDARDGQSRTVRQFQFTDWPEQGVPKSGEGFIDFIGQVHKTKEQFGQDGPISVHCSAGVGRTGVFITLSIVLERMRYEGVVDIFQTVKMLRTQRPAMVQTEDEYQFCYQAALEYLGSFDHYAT

[3] = target: T3, human EPHB3 without signal sequence, FLAG-tagged, expressed from pFLAG-EPHB3 (human, UniProt P54753 38-998); test: flow cytometry on transfected 293F cells
T3 construct: not shown: FLAG tag supplied by the vector pFLAG-GW
T3 sequence: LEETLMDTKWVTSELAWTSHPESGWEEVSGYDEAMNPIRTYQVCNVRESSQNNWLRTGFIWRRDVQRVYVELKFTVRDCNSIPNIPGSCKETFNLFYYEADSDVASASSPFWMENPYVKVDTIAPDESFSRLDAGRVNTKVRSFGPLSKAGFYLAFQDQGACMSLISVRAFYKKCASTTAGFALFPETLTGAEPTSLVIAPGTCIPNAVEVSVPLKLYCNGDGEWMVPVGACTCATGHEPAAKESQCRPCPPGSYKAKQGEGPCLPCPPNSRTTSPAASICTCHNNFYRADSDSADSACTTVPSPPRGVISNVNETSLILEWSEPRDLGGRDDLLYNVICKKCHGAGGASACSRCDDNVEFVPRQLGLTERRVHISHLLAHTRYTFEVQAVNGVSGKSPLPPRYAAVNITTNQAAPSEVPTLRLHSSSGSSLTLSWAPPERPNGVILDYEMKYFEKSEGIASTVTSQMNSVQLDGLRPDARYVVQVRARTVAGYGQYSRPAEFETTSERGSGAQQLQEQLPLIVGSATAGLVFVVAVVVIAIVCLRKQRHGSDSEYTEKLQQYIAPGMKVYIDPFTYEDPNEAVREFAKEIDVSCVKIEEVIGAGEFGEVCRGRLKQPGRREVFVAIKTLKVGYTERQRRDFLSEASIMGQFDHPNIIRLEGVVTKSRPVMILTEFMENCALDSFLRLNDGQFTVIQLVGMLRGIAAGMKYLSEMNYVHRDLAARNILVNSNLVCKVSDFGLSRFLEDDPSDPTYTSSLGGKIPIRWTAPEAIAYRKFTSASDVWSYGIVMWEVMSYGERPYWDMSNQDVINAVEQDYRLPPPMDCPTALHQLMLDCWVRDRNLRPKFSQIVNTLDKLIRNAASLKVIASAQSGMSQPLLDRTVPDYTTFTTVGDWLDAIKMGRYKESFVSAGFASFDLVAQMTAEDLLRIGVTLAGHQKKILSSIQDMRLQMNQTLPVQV

[4] = target: T4, human EPHA2 without signal sequence, FLAG-tagged, expressed from pFLAG-EPHA2 (human, UniProt P29317 24-976); test: immunohistochemistry on formalin-fixed, paraffin-embedded 293F cells transiently expressing EPHA2; antibody at 2.5 μg/mL
T4 construct: formalin-fixed, paraffin-embedded; not shown: FLAG tag supplied by the vector pFLAG-GW (from pFLAG-myc-CMV19)
T4 sequence (P29317 24-976): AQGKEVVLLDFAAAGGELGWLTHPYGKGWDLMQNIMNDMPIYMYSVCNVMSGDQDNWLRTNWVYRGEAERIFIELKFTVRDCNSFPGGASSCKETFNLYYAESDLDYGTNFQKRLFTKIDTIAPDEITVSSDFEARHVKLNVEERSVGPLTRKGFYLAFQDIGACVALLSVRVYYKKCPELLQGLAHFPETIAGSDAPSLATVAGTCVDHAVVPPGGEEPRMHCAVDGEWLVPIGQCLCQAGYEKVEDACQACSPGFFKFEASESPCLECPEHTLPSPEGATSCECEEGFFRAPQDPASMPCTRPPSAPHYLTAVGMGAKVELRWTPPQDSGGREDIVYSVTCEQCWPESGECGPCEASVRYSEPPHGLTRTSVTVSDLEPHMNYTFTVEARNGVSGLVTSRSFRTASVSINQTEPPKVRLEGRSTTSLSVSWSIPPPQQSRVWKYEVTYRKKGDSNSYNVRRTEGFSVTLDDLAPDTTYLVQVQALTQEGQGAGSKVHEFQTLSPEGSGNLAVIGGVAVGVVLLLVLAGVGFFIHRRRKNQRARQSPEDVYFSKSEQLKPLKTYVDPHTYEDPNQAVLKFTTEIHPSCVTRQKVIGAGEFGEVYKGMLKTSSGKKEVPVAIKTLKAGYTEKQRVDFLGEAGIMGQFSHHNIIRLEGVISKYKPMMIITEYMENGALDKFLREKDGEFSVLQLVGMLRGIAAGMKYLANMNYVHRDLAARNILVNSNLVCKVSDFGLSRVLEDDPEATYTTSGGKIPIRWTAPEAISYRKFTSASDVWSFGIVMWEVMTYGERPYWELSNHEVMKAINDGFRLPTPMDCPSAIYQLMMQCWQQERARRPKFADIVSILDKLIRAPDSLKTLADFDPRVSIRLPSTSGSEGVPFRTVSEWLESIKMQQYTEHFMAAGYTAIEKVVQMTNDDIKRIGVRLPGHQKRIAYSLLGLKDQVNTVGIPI

T1 sequence (P29317 24-976): as above

B1: mouse anti-human EPHA2 antibody A205 (antibody, V domains shown)
VH: QIQLVQSGPELKKPGETVKISCKASGYTFTDYSMNWVKQAPGKGLKWMGWINTYTGEPTYADDFKGRFAFSLETSASTAYLQINNLKNEDTATYFCASPISLLRLLDYWGQGTTLTVSS
VL: DVVMTQTPLSLPVSLGDQASIPCRSSQSLVHSNGNTYLHWYLQKPGQSPKLLIYKVSNRFSGVPDRFSGSGSGTDFTLKISRVEAEDLGVYFCSQSTHVPWTFGGGTKLEIKR
notes: Mouse monoclonal antibody purified from hybridoma supernatant, isotype IgG2b; also called A205 antibody
Does B1 bind [1]?
Result: binds

Does B1 bind [2]?
Result: no binding

Does B1 bind [3]?
Result: no binding

Does B1 bind [4]?
Result: binds

B2: mouse anti-human EPHA2 antibody A201 (antibody, V domains shown)
VH: EVQLQQSGAELVKPGASVKLSCTVSGFTFKDTYVHWVKQRPEQGLEWIGRIDPANANTKYDPKFQGKASITADTSSNTAYLQLSSLPSEDTAVYYCAAYGKSAWFAYWGQGTLVTVSA
VL: DIQMTQTTSSLSASLGDRVTISCRASQDIGNYLNWYQQKPDGTVKVLIYYTSRLHSGVPSRFSGSGSGTDYSLTISNLEQEDIATYFCQQGHSLPPTFGGGTKLEIKR
notes: Mouse monoclonal antibody purified from hybridoma supernatant, isotype IgG1; also called A201 antibody
Does B2 bind [1]?
Result: binds

Does B2 bind [2]?
Result: no binding

Does B2 bind [3]?
Result: no binding

Does B2 bind [4]?
Result: binds
